First the molecules themselves.
T1: glucose-dependent insulinotropic peptide (gastric inhibitory polypeptide) receptor (GIPR) (human, UniProt P48546 22-466)
T1 sequence (looked up): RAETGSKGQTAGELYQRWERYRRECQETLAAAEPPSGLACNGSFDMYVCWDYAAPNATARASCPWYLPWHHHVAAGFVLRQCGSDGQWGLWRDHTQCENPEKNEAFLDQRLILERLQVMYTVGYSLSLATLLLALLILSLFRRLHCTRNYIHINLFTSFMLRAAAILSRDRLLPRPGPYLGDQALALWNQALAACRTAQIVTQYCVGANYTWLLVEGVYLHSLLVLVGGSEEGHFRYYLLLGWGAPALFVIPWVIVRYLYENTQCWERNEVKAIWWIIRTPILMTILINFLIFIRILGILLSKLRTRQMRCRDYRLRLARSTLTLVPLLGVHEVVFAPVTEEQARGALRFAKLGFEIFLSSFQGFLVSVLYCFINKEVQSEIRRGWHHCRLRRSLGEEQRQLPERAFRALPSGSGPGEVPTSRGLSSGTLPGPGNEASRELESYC

B1: SEQ ID NO 88 (peptide)
peptide: HXEGSFTSDVSKFLEGEAAKEFIAFVVKGG
modifications: Aib 2; α-MeF 6, 13, 22, 25; α-MeS 11; α-MeK 20, 28; K(ε-γE-Palmitoyl) 12; C-terminal amide
B2: SEQ ID NO 89 (peptide)
peptide: H[Aib]EGS[αMeF]TSDVK([γGlu-Palmitoyl])S[αMeF]LEGEAA[αMeK]E[αMeF]IA[αMeF]VV[αMeK]GG-NH2
modifications: N-terminus assumed
SMILES: CCCCCCCCCCCCCCCC(=O)N[C@@H](CCC(=O)NCCCC[C@H](NC(=O)[C@@H](NC(=O)[C@H](CC(=O)O)NC(=O)[C@H](CO)NC(=O)[C@@H](NC(=O)[C@](C)(Cc1ccccc1)NC(=O)[C@H](CO)NC(=O)CNC(=O)[C@H](CCC(=O)O)NC(=O)C(C)(C)NC(=O)[C@@H](N)Cc1c[nH]cn1)[C@@H](C)O)C(C)C)C(=O)N[C@@H](CO)C(=O)N[C@@](C)(Cc1ccccc1)C(=O)N[C@@H](CC(C)C)C(=O)N[C@@H](CCC(=O)O)C(=O)NCC(=O)N[C@@H](CCC(=O)O)C(=O)N[C@@H](C)C(=O)N[C@@H](C)C(=O)N[C@@](C)(CCCCN)C(=O)N[C@@H](CCC(=O)O)C(=O)N[C@@](C)(Cc1ccccc1)C(=O)N[C@H](C(=O)N[C@@H](C)C(=O)N[C@@](C)(Cc1ccccc1)C(=O)N[C@H](C(=O)N[C@H](C(=O)N[C@@](C)(CCCCN)C(=O)NCC(=O)NCC(N)=O)C(C)C)C(C)C)[C@@H](C)CC)C(=O)O
B3: SEQ ID NO 87 (peptide)
peptide: H[Aib]EGS[αMeF]TSDV[αMeS]SK([γGlu-Palmitoyl])LEGEAA[αMeK]E[αMeF]IA[αMeF]VV[αMeK]GG-NH2
modifications: N-terminus assumed
SMILES: CCCCCCCCCCCCCCCC(=O)N[C@@H](CCC(=O)NCCCC[C@H](NC(=O)[C@H](CO)NC(=O)[C@](C)(CO)NC(=O)[C@@H](NC(=O)[C@H](CC(=O)O)NC(=O)[C@H](CO)NC(=O)[C@@H](NC(=O)[C@](C)(Cc1ccccc1)NC(=O)[C@H](CO)NC(=O)CNC(=O)[C@H](CCC(=O)O)NC(=O)C(C)(C)NC(=O)[C@@H](N)Cc1c[nH]cn1)[C@@H](C)O)C(C)C)C(=O)N[C@@H](CC(C)C)C(=O)N[C@@H](CCC(=O)O)C(=O)NCC(=O)N[C@@H](CCC(=O)O)C(=O)N[C@@H](C)C(=O)N[C@@H](C)C(=O)N[C@@](C)(CCCCN)C(=O)N[C@@H](CCC(=O)O)C(=O)N[C@@](C)(Cc1ccccc1)C(=O)N[C@H](C(=O)N[C@@H](C)C(=O)N[C@@](C)(Cc1ccccc1)C(=O)N[C@H](C(=O)N[C@H](C(=O)N[C@@](C)(CCCCN)C(=O)NCC(=O)NCC(N)=O)C(C)C)C(C)C)[C@@H](C)CC)C(=O)O

Starred links: 1 amine or outer side, 2 acyl side, 3 side chain; linkers in the order of their positions; H or OH if unused. Non-standard residues stand in square brackets, D forms with d. Groups on a side chain read outwards from the residue. No end group written: not given here. *: point of attachment. γGlu = O=C(O)[C@H](CCC(=O)[*:2])N[*:1]; Palmitoyl = CCCCCCCCCCCCCCCC(=O)*; αMeF = C[C@](N)(Cc1ccccc1)C(=O)O; αMeK = C[C@](N)(CCCCN)C(=O)O; αMeS = C[C@](N)(CO)C(=O)O; Aib = CC(C)(N)C(=O)O

In one test the target is glucagon receptor (GCGR) (human, UniProt P47871 26-477). The test is described as follows: cell-based or functional assay.
Sequence of glucagon receptor (GCGR) (P47871 26-477): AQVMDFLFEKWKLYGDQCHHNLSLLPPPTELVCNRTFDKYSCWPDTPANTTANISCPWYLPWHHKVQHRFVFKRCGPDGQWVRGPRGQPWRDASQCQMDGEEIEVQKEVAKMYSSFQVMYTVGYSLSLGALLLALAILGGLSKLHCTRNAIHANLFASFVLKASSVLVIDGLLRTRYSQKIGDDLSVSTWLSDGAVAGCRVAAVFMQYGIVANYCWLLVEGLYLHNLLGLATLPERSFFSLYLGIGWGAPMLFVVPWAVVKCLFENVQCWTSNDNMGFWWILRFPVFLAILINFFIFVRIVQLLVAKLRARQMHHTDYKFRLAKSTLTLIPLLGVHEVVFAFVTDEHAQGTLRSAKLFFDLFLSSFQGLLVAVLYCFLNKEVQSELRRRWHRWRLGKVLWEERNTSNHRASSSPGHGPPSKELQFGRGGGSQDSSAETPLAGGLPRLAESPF
For the molecule B1, the “cAMP Primary assay EC50 Gluc-R” value was determined as 28 nM and the “cAMP Primary assay EC50 Gluc-R (2nd)” value was 28 nM.
As for B2, the “cAMP Primary assay EC50 Gluc-R” value came out at 28 nM and the “cAMP Primary assay EC50 Gluc-R (2nd)” value came out at 28 nM.
B3: the “cAMP Primary assay EC50 Gluc-R” value came out at 28 nM and the “cAMP Primary assay EC50 Gluc-R (2nd)” value was 28 nM.

The target in another test is T1, glucose-dependent insulinotropic …. In words: cell-based or functional assay.
As for B1, the “cAMP Primary assay EC50 GIP-R” value came to 28 nM and the “cAMP Primary assay EC50 GIP-R (2nd)” value worked out at 28 nM.
Take B2: the “cAMP Primary assay EC50 GIP-R” value worked out at 28 nM and the “cAMP Primary assay EC50 GIP-R (2nd)” value was 28 nM.
In the case of B3, the “cAMP Primary assay EC50 GIP-R” value is 28 nM and the “cAMP Primary assay EC50 GIP-R (2nd)” value was 28 nM.

The target in another test is GLP-1 receptor (GLP-1R) (human, UniProt P43220 24-463). In words: cell-based or functional assay.
Consider B1, for which the “cAMP Mean pM GLP-1R” value was found to be 5 pM, the “cAMP Primary assay EC50 GLP-1R n1” value was determined as 0.0043 nM and the “cAMP Primary assay EC50 GLP-1R n2” value was 0.0057 nM.
On the same counts, the results for B2 are 548 pM, 0.45 nM and 0.65 nM.
With B3, the “cAMP Mean pM GLP-1R” value was 1.6 pM, the “cAMP Primary assay EC50 GLP-1R n1” value is 0.0016 nM and the “cAMP Primary assay EC50 GLP-1R n2” value worked out at 0.0016 nM.

The values above are taken from patent US20200079833A1 (AstraZeneca / MedImmune, published 2020).
